Results from patent EP4036575A1.

Molecular target: mouse recombinant His-calmodulin (mouse), P0DP26

Q: With INLKALAALAKKIL (modifications not checked) [Mastoparan, P01514 1-14] as the binder, how does the Kd read?
A: The Kd was 1.2 nM.
